Earlier results on two substances are cited in publication PMC4254573.

The target in data set [1] is EGFR ECD (Drosophila melanogaster) (UniProt P04412).
Data set [2] deals with sEGFR ECD (Homo sapiens) (UniProt P00533).

pKd: −log10 of the molar value.

EGFR ECD (from UniProt P04412): in data set [1], the negative-log Kd (pKd) (usually the Kd on a negative log10 scale, so that one unit is a factor of ten) was 4.40.
For sEGFR ECD (from UniProt P00533), in data set [2], the pKd is 6.00.
